The values that follow are results of earlier work, collected in PMC7355470.

One data set has as its target ESL-1 (Mus musculus) (UniProt Q61543). Kind of data set: SPR. A general note: In SPR one partner is held on a chip, and binding of the other changes the refractive index at the surface.
In data set [1] the target is PSGL-1 (Homo sapiens) (UniProt Q14242).
Data set [2] has the same target. This is another data set of the same source.
In data set [3] the target is P-selectin (Homo sapiens) (UniProt P16109).
The target in data set [4] is E-selectin (Homo sapiens) (UniProt P16581).
For data set [5], the target named is L-selectin (Homo sapiens) (UniProt P14151).
The target of data set [6] is P-selectin (Homo sapiens) (UniProt P16109). This is another data set of the same source.
For data set [7] the target is unchanged. The source holds these as a separate data set.
Data set [8] has the same target. The source holds these as a separate data set.
For data set [9] the target is unchanged. This is another data set of the same source.
For data set [10], the target named is PSGL-1 glycosulfopeptide N-terminal binding region peptide (Homo sapiens) (UniProt Q14242).
The target of data set [11] is PSGL-1 glycopeptide (non-sulfated) N-terminal binding region peptide (Homo sapiens) (UniProt Q14242).
In data set [12] the target is PSGL-1 glycosulfopeptide N-terminal binding region peptide (Homo sapiens) (UniProt Q14242). This is another data set of the same source.
For data set [13] the target is unchanged. The source holds these as a separate data set.
The target of the next data set is GlyCAM-1 (UniProt Q02596).
Chain of UniProt Q02596 (Q02596 20-151): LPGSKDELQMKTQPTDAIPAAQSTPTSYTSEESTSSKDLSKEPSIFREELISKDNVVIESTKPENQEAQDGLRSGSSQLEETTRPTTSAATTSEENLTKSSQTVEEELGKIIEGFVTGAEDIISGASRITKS

Where two headings read alike, the source gives them in different places.

Chain of PSGL-1 (Q14242 42-320): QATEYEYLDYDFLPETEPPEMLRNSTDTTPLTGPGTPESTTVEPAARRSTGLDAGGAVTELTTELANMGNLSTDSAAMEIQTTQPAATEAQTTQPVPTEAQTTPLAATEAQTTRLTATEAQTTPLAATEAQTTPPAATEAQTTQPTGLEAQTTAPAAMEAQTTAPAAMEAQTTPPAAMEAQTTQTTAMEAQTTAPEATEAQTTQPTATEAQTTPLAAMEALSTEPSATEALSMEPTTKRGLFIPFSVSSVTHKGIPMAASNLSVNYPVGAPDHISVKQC
Chain of UniProt Q61543 (Q61543 28-1141): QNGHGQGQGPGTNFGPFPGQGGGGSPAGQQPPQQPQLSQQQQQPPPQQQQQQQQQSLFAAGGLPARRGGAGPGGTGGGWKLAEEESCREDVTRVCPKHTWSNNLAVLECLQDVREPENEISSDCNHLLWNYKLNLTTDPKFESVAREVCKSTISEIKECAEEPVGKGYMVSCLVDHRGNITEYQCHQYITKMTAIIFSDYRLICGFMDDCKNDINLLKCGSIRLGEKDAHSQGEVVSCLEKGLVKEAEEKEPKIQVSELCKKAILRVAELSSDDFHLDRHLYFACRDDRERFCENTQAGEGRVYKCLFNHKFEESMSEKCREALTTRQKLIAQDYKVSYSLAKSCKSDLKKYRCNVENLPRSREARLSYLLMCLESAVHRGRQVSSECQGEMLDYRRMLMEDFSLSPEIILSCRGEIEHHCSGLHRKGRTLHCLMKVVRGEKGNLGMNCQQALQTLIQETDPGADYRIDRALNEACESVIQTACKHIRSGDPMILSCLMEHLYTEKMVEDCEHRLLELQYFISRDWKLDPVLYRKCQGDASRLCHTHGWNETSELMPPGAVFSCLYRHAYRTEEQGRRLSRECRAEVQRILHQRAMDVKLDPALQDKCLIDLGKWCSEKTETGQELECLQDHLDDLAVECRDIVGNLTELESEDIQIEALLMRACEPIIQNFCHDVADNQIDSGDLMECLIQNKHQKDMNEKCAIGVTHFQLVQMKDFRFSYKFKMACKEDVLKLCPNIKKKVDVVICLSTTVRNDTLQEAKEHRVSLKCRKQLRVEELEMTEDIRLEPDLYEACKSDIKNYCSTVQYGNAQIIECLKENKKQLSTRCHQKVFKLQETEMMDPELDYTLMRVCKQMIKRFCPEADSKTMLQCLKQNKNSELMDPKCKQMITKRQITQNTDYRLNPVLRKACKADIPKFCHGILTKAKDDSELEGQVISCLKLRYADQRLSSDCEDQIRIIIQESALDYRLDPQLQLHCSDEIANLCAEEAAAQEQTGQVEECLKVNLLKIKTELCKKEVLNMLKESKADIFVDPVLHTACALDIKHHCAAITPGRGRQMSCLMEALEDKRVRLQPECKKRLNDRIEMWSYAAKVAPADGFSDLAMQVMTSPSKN
Chain of PSGL-1 glycopeptide (non-sulfated) (Q14242 42-320): as the sequence (Q14242 42-320) above

Consider E-selectin (from UniProt P16581), for which the Kd is 62 µM in the data set with ESL-1 (Mus musculus) and 15 µM in the data set with PSGL-1 (Homo sapiens) [1].

For L-selectin (from UniProt P14151), the Kd in the data set with PSGL-1 (Homo sapiens) [2] was 5 µM.

Take E-selectin (from UniProt Q00690): the dissociation constant (Kd) with ESL-1 (Mus musculus) was 62 µM.

“PSGL-1 glycopeptide (non-sulfated) (from UniProt Q14242)”: in data set [3], the Kd was 25 µM.

With PSGL-1 (from UniProt Q14242), the Kd in data set [4] is 15 µM; in data set [5], 5 µM; in data set [6] it was 320 nM.

On to “PSGL-1 glucosulfopeptide (from UniProt Q14242)”, for which the Kd in data set [7] is 6 µM; in [8], 650 nM; in [9], 10 µM.

In the case of P-selectin (from UniProt P16109), the Kd was 650 nM in [10], 25 µM in data set [11], 10 µM in [12] and 6 µM in data set [13].

Regarding L-selectin (from UniProt P18337), the Kd with GlyCAM-1 was 108 µM.

The term Kd denotes the free concentration of one partner at which half of the binding sites on the other are occupied at equilibrium, for simple one-to-one binding.
